Laboratory results reported in US6673332 (University of California, dated 2004).

B2: GST-TPR (GST fusion protein of the TPR domains of KLC1, amino acids 167-541) (other, UniProt O88447 167-541, looked up)
chain: KDSDSSKEPLDDLFPNDEDEPGQGIQHSDSSAAAARQGYEIPARLRTLHNLVIQYASQGRYEVAVPSCKQALEDLEKTSGHDHPDVATMLNILALVYRDQNKYKDAANLLNDALAIREKTLGRDHPAVAATLNNLAVLYGKRGKYKEAEPLCKRALEIREKVLGKDHPDVAKQLNNLALLCQNQGKYEEVEYYYQRALGIYQTKLGPDRTPNVAKTKNNLASCYLKQGKFKQAETLYKEILTRAHEAEFGSVDDENKPIWMHAEEREECKGKQKDGSAFGEYGGWYKACKVDSPTVTTTLKNLGALYRRQGKFEAAETLEEAAMRSRKQGLDNVHKQRVAEVLNDPESMEKRRSRESLNMDVVKYESGPDGGEEA
notes: range 167-541; The range is printed without a hyphen (167541); not shown: glutathione S-transferase

Columns and labels:
[1] = target: B2; test: GST pull-down, Western blot for the His tag
Protocol: (§1) Briefly, purified GST, GST-KLC1 and GST-KLC2 bound to glutathione agarose beads were incubated with 10 μg of indicated purified fusion protein in 150 μl Buffer B (20 mM Tris-Cl, pH 7.5, 50 mM KCl, 100 mM NaCl, 2 mM CaCl_2, 2 mM MgCl_2, 5 mM DTT, 1% BSA, and protease inhibitors) for 1 hr at 4° C. For the antibody inhibition experiments, the antibody was pre-bound to the beads for 1 hr at 4° C. and then incubated for 1 hr with the indicated protein. The unbound protein (in 150 μl total volume) was saved, and the beads were washed three times with Buffer B. Bound proteins were eluted with 50 μl of elution buffer (50 mM glutathione, 50 mM Tris-Cl, pH 8.0). The bound (50 μl) and unbound (50 μl, i.e., one-third of total volume) proteins were then analyzed by SDS-PAGE followed by Western blotting.
(§2) To test directly if the C-terminus of APP interacts with the TPR domains of KLC, GST pull-down assays were conducted using GST fusion proteins of KLC1 that contained either the TPR domains (GST-TPR) or only the N-terminal coiled-coil region (GST-CC) (See, FIG. 5, Panel E). Purified APP-GFP protein bound to GST-TPR and not to GST-CC or to GST alone. In contrast, a KIF5B construct that contains part of a region previously found to bind to KLC (Diefenbach et al., [1998], supra; and Gauger and Goldstein, [1993], supra) bound to GST-CC, and not to GST-TPR.

[2] = target: T1, GFP alone (UniProt P42212 1-238 = GFP, limits assumed); test: GST pull-down, Western blot for GFP
T1 construct: Control
Protocol: as §1, §2

[3] = target: T2, APP-GFP fusion protein (C-terminal 42 amino acids of human APP fused to GFP, from a His-tagged pRSETb-EGFP … (human, UniProt P05067 729-770; P42212 1-238 = GFP); test: GST pull-down, Western blot for GFP
T2 construct: Expressed in bacteria, purified on Ni-NTA-agarose; also called C-terminal tail of APP fused to GFP; APP C-terminus; not shown: His tag and leader of the pRSETb vector
Protocol: as §1, §2

[4] = target: APP (amyloid precursor protein), endogenous, from mouse brain and sciatic nerve extracts (mouse, UniProt P12023 18-770, limits assumed); test: co-immunoprecipitation from mouse brain and sciatic nerve extracts, Western blot
Text: Mouse brain (left side of panel; IP brain) or sciatic nerve (right side of panel; Supe) extracts were immunoprecipitated with a no antibody control (No Ab), the 63–90 antibody (which recognizes both KLC1 and KLC2; i.e., kinesin light chains 1 and 2), antibodies to KIF5B (ubiquitous KHC), or APP (C-terminal polyclonal antibody) or synaptotagmin (SYT). Panel B provides results showing the specificity of kinesin-I co-immunoprecipitation with APP. Co-immunoprecipitation of APP with KLC from wild-type (wt) and mutant (−/−) KLC1 brain extracts was done using 63–90 or antibodies specific to either KLC1 or KLC2, and then analyzed by Western blots using either 63–90 or APP (22C11) antibodies. Panel C provides results showing KLC1 dependence of KHC complexes with APP. Co-immunoprecipitation of APP with KHC from wild-type (wt) and mutant (−/−) KLC1 brain extracts were performed using antibodies to three different KHC subunits (KIF5A, KIF5B and KIF5C), and then analyzed by Western blots using either 63–90 or APP (22C11) antibodies, as shown in this Panel. […]
Sufficient quantities of either anti-KLC1 and anti-KLC2 (Rahman et al., [1998], supra), or anti-KIF5A and anti-KIF5B antibodies (Niclas et al., Neuron 12:1059–1072 [1994]) were added to the precleared lysate so as to completely immunoprecipitate the antigens in the lysate. […]

[5] = target: T1, GFP alone; test: GST pull-down on glutathione agarose beads, Western blot for GFP; also under five buffer conditions
Protocol: as §1
In addition, the binding of APP-GFP or GFP alone to either GST-KLC1 or GST using four other buffers than Buffer B, namely (1) Buffer B without Ca^2+, (2) Buffer B+500 mM NaCl+1% NP-40, (3) Buffer A from sucrose gradients (10 mM HEPES, pH 7.3, 0.5 mM EGTA, 0.5 mM EGTA, 0.5 mM MgCl_2, and (4) PBS (137 mM NaCl, 2.7 mM KCl, 4.3 mM Na_2HPO_4 7 H_2O, 1.4 mM KH_2PO_4) were tested.
To test for direct interactions between the cytoplasmic C-terminal domain of APP and KLC, in vitro binding assays using GST fusion proteins were conducted. […]

[6] = target: T1, GFP alone; test: GST pull-down on glutathione agarose beads, Western blot for GFP
Protocol: as §1
To test for direct interactions between the cytoplasmic C-terminal domain of APP and KLC, in vitro binding assays using GST fusion proteins were conducted. The results are shown in FIG. 5, Panel A. GST fused to full-length KLC1 (GST-KLC1) or full-length KLC2 (GST-KLC2) was incubated with a protein consisting of the C-terminal tail of APP fused to GFP (APP-GFP). APP-GFP bound to both GST-KLC1 and GST-KLC2 but not to GST alone. […]

B1: KIF5B-His fusion protein (amino acids 499-783 of KIF5B, His-tagged, pET-23b) (other, UniProt Q61768 499-783, looked up)
chain: AVNYDQKSQEVEDKTKEYELLSDELNQKSATLASIDAELQKLKEMTNHQKKRAAEMMASLLKDLAEIGIAVGNNDVKQPEGTGMIDEEFTVARLYISKMKSEVKTMVKRCKQLESTQTESNKKMEENEKELAACQLRISQHEAKIKSLTEYLQNVEQKKRQLEESVDSLGEELVQLRAQEKVHEMEKEHLNKVQTANEVKQAVEQQIQSHRETHQKQISSLRDEVEAKEKLITDLQDQNQKMVLEQERLRVEHERLKATDQEKSRKLHELTVMQDRREQARQDLK
notes: range 499-783; also called C-terminal stalk of KIF5B; KIF5B construct; not shown: His tag of vector pET-23b
B1: no binding [1].

B2: no binding [2].

B3: GST-CC (GST fusion protein of the N-terminal coiled coil domain of KLC, amino acids 30-200) (other, UniProt O88447 30-200, looked up)
chain: QVIQGLEALKNEHNSILQSLLETLKCLKKDDESNLVEEKSSMIRKSLEMLELGLSEAQVMMALSNHLNAVESEKQNVRAQVRRLCQENQWLRDELANTQQKLQKSEQSVAQLEEEKKHLEFMNQLKKYDDDISPSEDKDSDSSKEPLDDLFPNDEDEPGQGIQHSDSSAAA
notes: range 30-200; not shown: glutathione S-transferase
B3: no binding [3]; no binding [2].

B4: synaptophysin, endogenous, mouse extracts (other, UniProt Q62277 1-314, looked up)
chain: MLLLADMDVVNQLVAGGQFRVVKEPLGFVKVLQWVFAIFAFATCGSYTGELRLSVECANKTESALNIEVEFEYPFRLHQVYFDAPSCVKGGTTKIFLVGDYSSSAEFFVTVAVFAFLYSMGALATYIFLQNKYRENNKGPMMDFLATAVFAFMWLVSSSAWAKGLSDVKMATDPENIIKEMPMCRQTGNTCKELRDPVTSGLNTSVVFGFLNLVLWVGNLWFVFKETGWAAPFMRAPPGAPEKQPAPGDAYGDAGYGQGPGGYGPQDSYGPQGGYQPDYGQPASGGGGGYGPQGDYGQQGYGQQGAPTSFSNQM
notes: also called SYP
B4: no binding [4].

B5: GST-KLC1 (glutathione S-transferase fused to kinesin light chain 1, all but the first seven amino acids) (other, UniProt O88447 8-541, looked up, not shown: a dimerising Fc or GST)
chain: MVYIKEEKLENVTQDEIISKTKQVIQGLEALKNEHNSILQSLLETLKCLKKDDESNLVEEKSSMIRKSLEMLELGLSEAQVMMALSNHLNAVESEKQNVRAQVRRLCQENQWLRDELANTQQKLQKSEQSVAQLEEEKKHLEFMNQLKKYDDDISPSEDKDSDSSKEPLDDLFPNDEDEPGQGIQHSDSSAAAARQGYEIPARLRTLHNLVIQYASQGRYEVAVPSCKQALEDLEKTSGHDHPDVATMLNILALVYRDQNKYKDAANLLNDALAIREKTLGRDHPAVAATLNNLAVLYGKRGKYKEAEPLCKRALEIREKVLGKDHPDVAKQLNNLALLCQNQGKYEEVEYYYQRALGIYQTKLGPDRTPNVAKTKNNLASCYLKQGKFKQAETLYKEILTRAHEAEFGSVDDENKPIWMHAEEREECKGKQKDGSAFGEYGGWYKACKVDSPTVTTTLKNLGALYRRQGKFEAAETLEEAAMRSRKQGLDNVHKQRVAEVLNDPESMEKRRSRESLNMDVVKYESGPDGGEEA
notes: range 8-end; also called GST fused to full-length KLC1
B5: no binding [5].

B6: GST-KLC2 (glutathione S-transferase fused to kinesin light chain 2, 591 amino acids of the largest cDNA clone) (other, UniProt O88448 9-599, looked up, not shown: a dimerising Fc or GST)
chain: EEKLSQDEIVLGTKAVIQGLETLRGEHRALLAPLASHEAGEAEPGSQERCLLLRRSLEAIELGLGEAQVILALSSHLGAVESEKQKLRAQVRRLVQENQWLREELAGTQQKLQRSEQAVAQLEEEKQHLLFMSQIRKLDEMLPQEEKGDVPKDSLDDLFPNEDEQSPAPSPGGGDVAAQHGGYEIPARLRTLHNLVIQYASQGRYEVAVPLCKQALEDLEKTSGHDHPDVATMLNILALVYRDQNKYKDAAHLLNDALAIREKTLGKDHPAVAATLNNLAVLYGKRGKYKEAEPLCKRALEIREKVLGKFHPDVAKQLSNLALLCQNQGKAEEVEYYYRRALEIYATRLGPDDPNVAKTKNNLASCYLKQGKYQDAETLYKEILTRAHEKEFGSVNGENKPIWMHAEEREESKDKRRDRRPMEYGSWYKACKVDSPTVNTTLRTLGALYRPEGKLEAAHTLEDCASRSRKQGLDPASQTKVVELLKDGSGRGHRRGSRDVAGPQSESDLEESGPAAEWSGDGSGSLRRSGSFGKLRDALRRSSEMLVRKLQGGGPQEPNSRMKRASSLNFLNKSVEEPVQPGGRVFLTAAL
notes: also called GST fused to full-length KLC2
B6: no binding [6].
